# Data from PMC8914513.
# Experiments:
# [1] = molecular target: serine hydroxymethyltransferase, cytosolic (SHMT1), His-tagged, immobilised in QCM-D (UniProt P34896); assay: QCM-D (quartz crystal microbalance with dissipation monitoring); two proteins: 5 uM His-tagged SHMT immobilised on His-tag capturing sensor QSX340; tagless ligand introduced (0.1-1.0 uM or 0.5-7.0 uM for TS, pTS or DHFR); 20 mM Tris-HCl pH 7.6, 100 mM (salt not given), 10 mM MgCl2, 0.05% Tween 20, 25 C, 200 ul/min; Langmuir isotherm fit
# [2] = molecular target: CK2alpha-phosphorylated thymidylate synthase fraction (pTS), as used in MST (human) (UniProt P04818); assay: MST; two proteins in solution, Premium capillaries: labeled DHFR with SHMT 157 uM-4.79 nM; labeled SHMT with TS 62.0 uM-1.9 nM; labeled pTS with SHMT 157 uM-4.79 nM; Kd model fit
# DHFR (Homo sapiens) [3] = molecular target: DHFR (Homo sapiens) (UniProt P00374); assay: QCM-D; conditions: cited from earlier work
# DHFR (Homo sapiens) [4] = molecular target: DHFR (Homo sapiens) (UniProt P00374); assay: MST; conditions: cited from earlier work
# thymidylate synthase, sequence (P04818 2-313): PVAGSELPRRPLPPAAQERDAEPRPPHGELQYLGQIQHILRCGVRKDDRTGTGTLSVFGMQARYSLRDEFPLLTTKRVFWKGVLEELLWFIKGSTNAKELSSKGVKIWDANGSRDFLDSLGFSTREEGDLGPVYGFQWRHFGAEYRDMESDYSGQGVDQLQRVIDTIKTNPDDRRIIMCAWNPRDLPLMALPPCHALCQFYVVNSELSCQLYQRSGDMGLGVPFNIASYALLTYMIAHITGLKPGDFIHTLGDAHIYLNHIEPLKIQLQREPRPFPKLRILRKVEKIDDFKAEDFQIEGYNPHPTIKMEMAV
# DHFR (Homo sapiens), sequence (P00374 whole entry): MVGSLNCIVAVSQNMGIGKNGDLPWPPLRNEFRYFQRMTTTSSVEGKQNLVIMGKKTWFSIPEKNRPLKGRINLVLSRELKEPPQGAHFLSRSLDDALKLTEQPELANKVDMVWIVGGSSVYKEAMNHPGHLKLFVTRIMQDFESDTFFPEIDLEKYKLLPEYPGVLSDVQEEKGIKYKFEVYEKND
# CK2alpha-phosphorylated thymidylate synthase fraction (pTS), as used in MST (human), sequence (P04818 whole entry): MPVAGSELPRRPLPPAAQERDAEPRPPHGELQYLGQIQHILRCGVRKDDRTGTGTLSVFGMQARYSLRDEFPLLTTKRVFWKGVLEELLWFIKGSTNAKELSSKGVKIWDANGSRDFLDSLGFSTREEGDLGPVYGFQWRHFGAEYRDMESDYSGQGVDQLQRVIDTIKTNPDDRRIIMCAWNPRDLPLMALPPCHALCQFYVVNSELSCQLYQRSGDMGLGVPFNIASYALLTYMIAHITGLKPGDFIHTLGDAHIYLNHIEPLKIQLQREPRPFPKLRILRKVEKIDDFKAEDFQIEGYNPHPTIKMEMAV
# serine hydroxymethyltransferase, cytosolic (SHMT1), His-tagged, immobilised in QCM-D, sequence (P34896 whole entry): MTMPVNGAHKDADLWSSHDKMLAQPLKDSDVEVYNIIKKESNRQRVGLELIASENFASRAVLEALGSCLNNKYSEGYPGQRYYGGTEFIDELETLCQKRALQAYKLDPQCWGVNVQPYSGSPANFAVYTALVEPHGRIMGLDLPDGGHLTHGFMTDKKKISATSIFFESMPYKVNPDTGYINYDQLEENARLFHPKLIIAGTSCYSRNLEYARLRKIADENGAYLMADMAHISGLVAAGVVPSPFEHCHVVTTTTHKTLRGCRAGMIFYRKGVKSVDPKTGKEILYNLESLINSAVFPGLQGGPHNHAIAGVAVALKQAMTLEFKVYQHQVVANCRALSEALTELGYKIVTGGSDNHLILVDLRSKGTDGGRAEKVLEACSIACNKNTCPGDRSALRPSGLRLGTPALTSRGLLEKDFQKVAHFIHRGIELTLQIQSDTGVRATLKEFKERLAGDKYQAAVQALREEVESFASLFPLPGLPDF
substance,measurement,setting,value
"CK2alpha-phosphorylated thymidylate synthase fraction (pTS), tagless ligand in QCM-D (from UniProt P04818 1-313) (enzyme)",Kd,[1],5.35 µM
"serine hydroxymethyltransferase, cytosolic (SHMT1), as used in MST (from UniProt P34896 1-483) (enzyme)",Kd,[2],0.219 µM
thymidylate synthase (from UniProt P04818),Kd,DHFR (Homo sapiens) [3],7.6 µM
same,Kd,DHFR (Homo sapiens) [4],2.8 µM
